The values below come from patent US20230064378A1 (Eli Lilly, published 2023).

Bounds are passed on as bounds.

The target in experiment [1] is T1, human IL-4Rα on cells (human, UniProt P24394 26-825).
T1 sequence: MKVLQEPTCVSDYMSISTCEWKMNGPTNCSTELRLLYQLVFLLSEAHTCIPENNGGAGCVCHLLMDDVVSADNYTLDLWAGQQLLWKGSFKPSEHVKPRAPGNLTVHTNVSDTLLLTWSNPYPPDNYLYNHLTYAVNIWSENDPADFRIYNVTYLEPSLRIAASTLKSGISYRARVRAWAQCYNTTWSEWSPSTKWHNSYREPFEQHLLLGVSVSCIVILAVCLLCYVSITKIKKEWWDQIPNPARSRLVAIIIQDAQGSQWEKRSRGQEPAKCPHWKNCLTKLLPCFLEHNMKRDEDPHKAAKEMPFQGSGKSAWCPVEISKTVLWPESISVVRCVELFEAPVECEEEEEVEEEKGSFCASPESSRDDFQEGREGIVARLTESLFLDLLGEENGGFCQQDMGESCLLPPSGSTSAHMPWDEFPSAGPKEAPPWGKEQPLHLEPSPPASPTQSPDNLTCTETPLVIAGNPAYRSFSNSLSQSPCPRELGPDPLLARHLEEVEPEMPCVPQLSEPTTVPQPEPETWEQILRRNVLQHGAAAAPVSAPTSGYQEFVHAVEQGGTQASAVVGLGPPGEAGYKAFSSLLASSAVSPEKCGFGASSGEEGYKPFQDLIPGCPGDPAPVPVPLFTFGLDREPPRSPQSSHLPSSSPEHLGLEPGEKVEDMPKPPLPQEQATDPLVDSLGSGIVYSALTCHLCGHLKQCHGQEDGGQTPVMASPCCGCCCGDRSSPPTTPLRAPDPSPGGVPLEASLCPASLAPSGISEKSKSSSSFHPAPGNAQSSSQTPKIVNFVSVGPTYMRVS
The experiment is described as follows: cell-based or functional assay.

For experiment [2], the target named is T1, human IL-4Rα on cells. The experiment is described as follows: cell-based or functional assay. The source holds these as a separate data set.
In another experiment the target is T2, Human C1q (human, UniProt P02745 23-245; P02746 28-253; P02747 29-245).
T2 construct: Bought (MS Biomedical); also called complement component C1q
T2 sequence (P02745 23-245 limits assumed, chain 1 of 3): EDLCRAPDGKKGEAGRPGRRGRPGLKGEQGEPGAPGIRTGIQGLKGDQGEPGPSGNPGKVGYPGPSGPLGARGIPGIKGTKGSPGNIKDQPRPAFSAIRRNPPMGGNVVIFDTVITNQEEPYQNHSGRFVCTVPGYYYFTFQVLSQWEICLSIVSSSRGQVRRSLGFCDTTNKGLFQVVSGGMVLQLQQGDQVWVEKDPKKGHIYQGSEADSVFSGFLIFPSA
T2 sequence (P02746 28-253 limits assumed, chain 2 of 3): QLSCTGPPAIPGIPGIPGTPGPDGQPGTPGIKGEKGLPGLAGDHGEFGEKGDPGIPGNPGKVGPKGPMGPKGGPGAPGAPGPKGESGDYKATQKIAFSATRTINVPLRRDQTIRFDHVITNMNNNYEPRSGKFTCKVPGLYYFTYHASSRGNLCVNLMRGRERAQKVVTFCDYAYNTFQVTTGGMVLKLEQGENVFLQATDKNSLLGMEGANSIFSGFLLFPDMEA
T2 sequence (P02747 29-245 limits assumed, chain 3 of 3): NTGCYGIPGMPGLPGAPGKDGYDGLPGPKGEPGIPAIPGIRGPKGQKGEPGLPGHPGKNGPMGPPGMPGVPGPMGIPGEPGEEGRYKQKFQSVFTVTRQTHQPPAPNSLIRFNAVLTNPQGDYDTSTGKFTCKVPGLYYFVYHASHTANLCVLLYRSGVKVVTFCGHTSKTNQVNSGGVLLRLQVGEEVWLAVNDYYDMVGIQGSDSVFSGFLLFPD
The experiment is described as follows: ELISA, antibody coated, C1q detected with anti-C1q-HRP. A general note: ELISA stands for enzyme-linked immunosorbent assay.

Experiment [3] deals with T1, human IL-4Rα on cells. The experiment is described as follows: cell-based or functional assay. The source holds these as a separate data set.
The target in experiment [4] is T1, human IL-4Rα on cells. The experiment is described as follows: cell-based or functional assay. The source holds these as a separate data set.
In experiment [5] the target is T1, human IL-4Rα on cells. The experiment is described as follows: cell-based or functional assay. This is another data set of the same source.
Experiment [6] has as its target T1, human IL-4Rα on cells. The experiment is described as follows: flow cytometry staining of primary human B cells (Th2 cells also confirmed IL-4Rα+). A general note: Flow cytometry measures light scatter and fluorescence of single cells or particles in a stream.
Source text: Flow cytometry staining was used to assess cell purity on a BD LSRFortessa Cell Analyzer.

Procedure for Human C1q: The binding of the exemplified anti-IL-4Rα antibodies to human C1q was evaluated by ELISA. 96-well microplates were coated with 100 μL/well of each exemplified antibody diluted in DPBS (Dulbecco's HyClone) from 10 μg/mL to 0.19 g/mL, and incubated overnight at 4° C. The coating reagent was removed, plates were blocked with 200 μL/well casein blocking buffer (Thermo) and incubated for 2 hours at room temperature (RT). Plates were washed 3 times with wash buffer (1×TBE with 0.05% Tween 20), and 10 μg/mL Human C1q (MS Biomedical) diluted in casein blocking reagent is added at 100 μL/well and incubated for 3 hours at RT. Humanized IgG1 and humanized IgG4P isotype control antibodies were used as positive and negative controls respectively. Plates were then washed three times with wash buffer and 100 L/well of a 1:800 times dilution of Sheep anti-human C1q-HRP (Abcam #ab46191) in casein blocker was added and incubated for 1 hour at RT. The plates were then washed 6 times with wash buffer, and 100 μL/well of TMB Substrate (Pierce) was added to each well and incubated for 7 minutes. 100 μL/well of 1 N HCl was added to stop the reaction. Optical density was immediately measured at 450 nm on a colorimetric microplate reader. Data was analyzed using SoftMax Pro 7.1 Data Acquisition and Analysis Software.

B1: 5559 IgG4P KRQ 124C/378C (antibody)
heavy: QVQLVESGGGLVQPGGSLRLSCVASGFTFSHSSMNWVRQAPGKGLEWVSYISRATGAVYYADSVKGRFTISRDNAKNSLYLQMNSLRDEDTAVYYCAREPVFDYWGQGTLVTVSSASTKGPCVFPLAPCSRSTSESTAALGCLVKDYFPEPVTVSWNSGALTSGVHTFPAVLQSSGLYSLSSVVTVPSSSLGTKTYTCNVDHKPSNTKVDKRVESKYGPPCPPCPAPEFLGGPSVFLFPPKPKDTLMISRTPEVTCVVVDVSQEDPEVKFNWYVDGVEVHNAKTKPREEQFNSTYRVVSVLTVLHQDWLNGKEYKCKVSNKGLPSSIEKTISKAKGQPREPQVYTLPPSREEMTKNQVSLTCLVKGFYPSDICVEWESNGQPENNYKTTPPVLDSDGSFFLYSRLTVDKSRWQQGNVFSCSVMHEALHNHYTQKSLSLSLG
light: DIQMTQSPSAMSASVGDRVTITCRASQDISNYLAWFQQKPGKVPTRLIYAASSLQSGVPSRFSGSGSGTEFTLTISSLQPEDFATYYCLQWSSYPRTFGQGTKVEIKRTVAAPSVFIFPPSDEQLKSGTASVVCLLNNFYPREAKVQWKVDNALQSGNSQESVTEQDSKDSTYSLSSTLTLSKADYEKHKVYACEVTHQGLSSPVTKSFNRGEC
B1: in the experiment with human IL-4Rα on cells [1], the “Inhibition of CD23 expression on myeloid cells, IL-4 induced IC50” value was determined as 18.2 nM and the “Inhibition of CD23 expression on myeloid cells, IL-13 induced IC50” value came out at 5.37 nM. Further, in the experiment with human IL-4Rα on cells [2], the “Inhibition of IL-4 induced STAT6 phosphorylation, B cells IC50” value amounted to 0.05 µg/mL and the “Inhibition of IL-4 induced STAT6 phosphorylation, T cells IC50” value was found to be 0.07 µg/mL. Moreover, the binding result with Human C1q is “no binding”. The “Inhibition of IL-4 induced B cell proliferation IC50” value in the experiment with human IL-4Rα on cells [3] was found to be 1.32 nM. In the experiment with human IL-4Rα on cells [4], the “IL-4 IC50 (nM), IL-4 induced SEAP activity in HEK-Blue cells” value (shortened to “IL-4 IC50 (nM)”) is 0.08 nM and the “IL-13 IC50 (nM), IL-13 induced SEAP activity in HEK-Blue cells” value (“IL-13 IC50 (nM)” below) is 0.67 nM. Besides, the “Inhibition of IL-13 induced STAT6 phosphorylation in B cells IC50” value with human IL-4Rα on cells [5] amounted to 0.06 µg/mL.

B2: 5559 IgG1A 124C/378C (antibody)
heavy: not shown
light: DIQMTQSPSAMSASVGDRVTITCRASQDISNYLAWFQQKPGKVPTRLIYAASSLQSGVPSRFSGSGSGTEFTLTISSLQPEDFATYYCLQWSSYPRTFGQGTKVEIKRTVAAPSVFIFPPSDEQLKSGTASVVCLLNNFYPREAKVQWKVDNALQSGNSQESVTEQDSKDSTYSLSSTLTLSKADYEKHKVYACEVTHQGLSSPVTKSFNRGEC
Take B2: in the experiment with Human C1q, the binding result was “no binding”.

B3: 5F3 IgG4PAA (antibody, V domains shown)
VH: QVQLVESGGGLVQPGGSLRLSCAASGFTFSISSMNWVRQAPGKGLEWVSYISRATGAIYYADSVKGRFTISRNNAKNSLYLQMNSLRDEDTAVYYCAREPVFDYWGQGTLVTVSS
VL: DIQMTQSPSAMSASVGDRVTITCRASQGISNYLAWFQQKPGKVPTRLIYAASSLQSGVPSRFSGSGSGTEFTLTISSLQPEDFATYYCLQHNSYPRTFGQGTKVEIKR
With B3, in the experiment with human IL-4Rα on cells [4], the “IL-4 IC50 (nM)” value was 3.45 nM and the “IL-13 IC50 (nM)” value is > 35 nM.

B4: 8660 IgG4P 124C/378C (antibody, V domains shown)
VH: QVQLVESGGGLVQPGGSLRLSCAASGFTFSHSSMNWVRQAPGKGLEWVSYISRATGAVYYADSVKGRFTISRDNAKNSLYLQMNSLRDEDTAVYYCAREPVFDYWGQGTLVTVSS
VL: DIQMTQSPSAMSASVGDRVTITCRASQGISNYLAWFQQKPGKVPTRLIYAASSLQSGVPSRFSGSGSGTEFTLTISSLQPEDFATYYCLQWSSYPRTFGQGTKVEIKR
As to B4, in the experiment with human IL-4Rα on cells [4], the “IL-4 IC50 (nM)” value worked out at 0.03 nM and the “IL-13 IC50 (nM)” value was determined as 0.24 nM.

B5: 5559-Alexa Fluor-647 (antibody, V domains shown)
VH: QVQLVESGGGLVQPGGSLRLSCVASGFTFSHSSMNWVRQAPGKGLEWVSYISRATGAVYYADSVKGRFTISRDNAKNSLYLQMNSLRDEDTAVYYCAREPVFDYWGQGTLVTVSS
VL: DIQMTQSPSAMSASVGDRVTITCRASQDISNYLAWFQQKPGKVPTRLIYAASSLQSGVPSRFSGSGSGTEFTLTISSLQPEDFATYYCLQWSSYPRTFGQGTKVEIK
modifications: Antibody conjugated to Alexa Fluor 647; the attachment sites are not stated and the letters do not carry the dye.
Consider B5, for which the binding result with human IL-4Rα on cells [6] is given as “binds”.
